Values joined by “and” are separate entries in the source; they are usually repeats but may differ in a detail not shown here. Equal values may be shown once.
Legend:
[1] = target: Hcp1 (hemolysin-coregulated protein 1) of Burkholderia pseudomallei, recombinant wildtype (B. pseudomallei); assay: AUC
[2] = target: Hcp1 (hemolysin-coregulated protein 1) of Burkholderia pseudomallei, recombinant wildtype (B. pseudomallei); assay: dynamic light scattering; 8 mg/mL; apparent molecular weight in solution

Substance: Hcp1 (hemolysin-coregulated protein 1) of Burkholderia pseudomallei, recombinant wildtype (natural protein)
- stoichiometry N [1]: 6 and 12
- stoichiometry N [2]: 12

— paper PMC4650826
